The text below walks through data of publication PMC7954794, “Protein context shapes the specificity of SH3 domain-mediated interactions in vivo” (Nature Communications, 2021).

The chains are these.
B1: YJR076C (protein, UniProt P32458 2-415, looked up)
Cell division control protein …: SGIIDASSALRKRKHLKRGITFTVMIVGQSGSGRSTFINTLCGQQVVDTSTTILLPTDTSTEIDLQLREETVELEDDEGVKIQLNIIDTPGFGDSLDNSPSFEIISDYIRHQYDEILLEESRVRRNPRFKDGRVHCCLYLINPTGHGLKEIDVEFIRQLGSLVNIIPVISKSDSLTRDELKLNKKLIMEDIDRWNLPIYNFPFDEDEISDEDYETNMYLRTLLPFAIIGSNEVYEMGGDVGTIRGRKYPWGILDVEDSSISDFVILRNALLISHLHDLKNYTHEILYERYRTEALSGESVAAESIRPNLTKLNGSSSSSTTTRRNTNPFKQSNNINNDVLNPASDMHGQSTGENNETYMTREEQIRLEEERLKAFEERVQQELLLKRQELLQREKELREIEARLEKEAKIKQEE
B2: YLR314C (protein, UniProt P32457 2-520, looked up)
Cell division control protein …: SLKEEQVSIKQDPEQEERQHDQFNDVQIKQESQDHDGVDSQYTNGTQNDDSERFEAAESDVKVEPGLGMGITSSQSEKGQVLPDQPEIKFIRRQINGYVGFANLPKQWHRRSIKNGFSFNLLCVGPDGIGKTTLMKTLFNNDDIEANLVKDYEEELANDQEEEEGQGEGHENQSQEQRHKVKIKSYESVIEENGVKLNLNVIDTEGFGDFLNNDQKSWDPIIKEIDSRFDQYLDAENKINRHSINDKRIHACLYFIEPTGHYLKPLDLKFMQSVYEKCNLIPVIAKSDILTDEEILSFKKTIMNQLIQSNIELFKPPIYSNDDAENSHLSERLFSSLPYAVIGSNDIVENYSGNQVRGRSYPWGVIEVDNDNHSDFNLLKNLLIKQFMEELKERTSKILYENYRSSKLAKLGIKQDNSVFKEFDPISKQQEEKTLHEAKLAKLEIEMKTVFQQKVSEKEKKLQKSETELFARHKEMKEKLTKQLKALEDKKKQLELSINSASPNVNHSPVPTKKKGFLR
B3: YDL065C (protein, UniProt Q07418 1-339, looked up)
Peroxisomal membrane protein …: MNENEYDNFDDLDDLLDEDPTKLDEAEPDDVQAKGSVYNDSENKEKNAESKDSDGVQVANESEEDPELKEMMVDLQNEFANLMKNNGNENNVKTEDFNKLISALEEAAKVPHQQMEQGCSSLKSNSTDKGTVNGSNPGFKNIVSNTLDRLKENGNKVDTSLAEETKESQRSGQNNNIDDILSQLLDQMVASGGKESAENQFDLKDGEMDDAITKILDQMTSKEVLYEPMKEMRSEFGVWFQENGENEEHKEKIGTYKRQFNIVDEIVNIYELKDYDELKHKDRVTELLDELEQLGDSPIRSANSPLKHGNEEEELMKMLEIDGNDPNLGNLDKELTDGC
B4: YDL225W (protein, UniProt Q07657 2-551, looked up)
Seventh homolog of septin 1: STASTPPINLFRRKKEHKRGITYTMLLCGPAGTGKTAFANNLLETKIFPHKYQYGKSNASISSNPEVKVIAPTKVVSFNSKNGIPSYVSEFDPMRANLEPGITITSTSLELGGNKDQGKPEMNEDDTVFFNLIMTHGIGENLDDSLCSEEVMSYLEQQFDIVLAEETRIKRNPRFEDTRVHVALYFIEPTGHGLREVDVELMKSISKYTNVLPIITRADSFTKEELTQFRKNIMFDVERYNVPIYKFEVDPEDDDLESMEENQALASLQPFAIITSDTRDSEGRYVREYPWGIISIDDDKISDLKVLKNVLFGSHLQEFKDTTQNLLYENYRSEKLSSVANAEEIGPNSTKRQSNAPSLSNFASLISTGQFNSSQTLANNLRADTPRNQVSGNFKENEYEDNGEHDSAENEQEMSPVRQLGREIKQENENLIRSIKTESSPKFLNSPDLPERTKLRNISETVPYVLRHERILARQQKLEELEAQSAKELQKRIQELERKAHELKLREKLINQNKLNGSSSSINSLQQSTRSQIKKNDTYTDLASIASGRD
B5: YBR102C (protein, UniProt P38261 1-753, looked up)
Exocyst complex component …: MVEFSLKKARNNWKHVKKSASSPAKQKTPPSPAKPKQKTKKNPYSDLKDPATSYTLPTINARERSRVATSMQRRLSIHNTNYAPPTLDYSMPLPDMPNMIVPNDNVDSSHNNSSFTTENESVSSKGPSNSLNLSTADLSLNDSSYNKVPARSAMRNTVNPSGSNDPFNNSTSLRKMLANPHFNAKDFVHDKLGNASAITIDKFTSNLTDLSIQVQEEVKLNINKSYNEIMTVNNDLNVAMLELKRVRANINDLNEVLDQCTKIAEKRLQLQDQIDQERQGNFNNVESHSNSPALLPPLKAGQNGNLMRRDRSSVLILEKFWDTELDQLFKNVEGAQKFINSTKGRHILMNSANWMELNTTTGKPLQMVQIFILNDLVLIADKSRDKQNDFIVSQCYPLKDVTVTQEEFSTKRLLFKFSNSNSSLYECRDADECSRLLDVIRKAKDDLCDIFHVEEENSKRIRESFRYLQSTQQTPGRENNRSPNKNKRRSMGGSITPGRNVTGAMDQYLLQNLTLSMHSRPRSRDMSSTAQRLKFLDEGVEEIDIELARLRFESAVETLLDIESQLEDLSERISDEELMLLNLISLKIEQRREAISSKLSQSILSSNEIVHLKSGTENMIKLGLPEQALDLFLQNRSNFIQDLILQIGSVDNPTNYLTQLAVIRFQTIKKTVEDFQDIFKELGAKISSILVDWCSDEVDNHFKLIDKQLLNDEMLSPGSIKSSRKQIDGLKAVGLDFVYKLDEFIKKNSDKIR
B6: YLR191W (protein)
chain: EFARALYDFVPENPEMEVALKKGDLMAILSKKDPLGRDSDWWKVRTKNGNIGYIPYNYIEIIK
B7: YOL147C (protein, UniProt Q12462 2-236, looked up)
Peroxisomal membrane protein …: VCDTLVYHPSVTRFVKFLDGSAGREKVLRLLQYLARFLAVQNSSLLARQLQAQFTTVRKFLRFLKPLNHLQAAAKFYDNKLASDNVVRVCNVLKNIFFAAYLSLDQVNLLRILKVIPVTVLTGKKIPRWSNWCWLFGLLSGLAMDLRKIQTSHAQIAAFVKAKSQSQGDEHEDHKKVLGKAYQDRYTALRRLFWDAADSFIVLNNLGYLSSNEEYVALSGVVTSILGMQDMWKAT

The first assay deals with ABP1. The assay is described as follows: DHFR-PCA on solid medium, bait ABP1 (Fig. 1B). It counts as cell-based, Saccharomyces cerevisiae. As to conditions: bait ABP1, label = prey; 2-4 replicates. From the text:
(§1) Supplement 41467_2021_21873_MOESM8_ESM.xlsx, sheet "Fig1B" | column: medsize; medrep; Ratio; Score
Take B1: the “medrep (log2 median colony size normalized to plate background, PCA score)” value was 2.021.
In the case of B2, the “medrep (log2 median colony size normalized to plate background, PCA score)” value turned out to be 4.381.
Take B3: the “medrep (log2 median colony size normalized to plate background, PCA score)” value is 3.518.
For the molecule B4, the “medrep (log2 median colony size normalized to plate background, PCA score)” value worked out at 2.276.

The assay is the same for the next values; noted with them: bait ABP1, label = prey; only significant differences showed; PPIs completely lost have a ratio of 0.1 and the gained PPIs 2.5.
On to B1, for which the “Ratio (SH3-deleted/WT medrep)” value came to 1.374.
For the molecule B3, the “Ratio (SH3-deleted/WT medrep)” value is recorded as 1.321.

The next assay has as its system BEM1-2. The assay is described as follows: DHFR-PCA on solid medium, bait BEM1-2 (Fig. 1B). The format is cell-based, Saccharomyces cerevisiae. As to conditions: bait BEM1-2, label = prey; 2-8 replicates.
Text: as §1
As for B1, the “medrep (log2 median colony size normalized to plate background, PCA score)” value is reported as 1.843.
With B5, the “medrep (log2 median colony size normalized to plate background, PCA score)” value came out at 1.504.
Take B2: the “medrep (log2 median colony size normalized to plate background, PCA score)” value was found to be 1.7566.
Still for that read-out and setting: the same measure for B4: 2.78.

The same assay, now with this note: bait BEM1-2, label = prey; only significant differences showed; PPIs completely lost have a ratio of 0.1 and the gained PPIs 2.5.
As to B1, the “Ratio (SH3-deleted/WT medrep)” value turned out to be 0.5753.
B5: the “Ratio (SH3-deleted/WT medrep)” value was found to be 0.1.
The same measure, in the same setting: the result for B2 reads 0.5003.
In the case of B4, the “Ratio (SH3-deleted/WT medrep)” value worked out at 0.1.

Another assay relates to BEM1-1. Briefly: DHFR-PCA on solid medium, bait BEM1-1 (Fig. 1B). The format is cell-based, Saccharomyces cerevisiae. As to conditions: bait BEM1-1, label = prey; 2-8 replicates.
Text: as §1
On to B1, for which the “medrep (log2 median colony size normalized to plate background, PCA score)” value is recorded as 3.2032.
In the case of B6, the “medrep (log2 median colony size normalized to plate background, PCA score)” value amounted to 3.807.
In the case of B5, the “medrep (log2 median colony size normalized to plate background, PCA score)” value was 1.504.
With B2, the “medrep (log2 median colony size normalized to plate background, PCA score)” value stood at 3.511.
Take B3: the “medrep (log2 median colony size normalized to plate background, PCA score)” value was 3.086.
Take B4: the “medrep (log2 median colony size normalized to plate background, PCA score)” value turned out to be 2.78.
On to B7, for which the “medrep (log2 median colony size normalized to plate background, PCA score)” value was found to be 4.705.

The assay is the same for the next values; noted with them: bait BEM1-1, label = prey; only significant differences showed; PPIs completely lost have a ratio of 0.1 and the gained PPIs 2.5.
B6: the “Ratio (SH3-deleted/WT medrep)” value came out at 2.5.
For the molecule B5, the “Ratio (SH3-deleted/WT medrep)” value is recorded as 0.1.
Consider B3, for which the “Ratio (SH3-deleted/WT medrep)” value is 2.5.
B7: the “Ratio (SH3-deleted/WT medrep)” value is 2.5.
